Measured values reported in patent US20220340678A1 (MURAL ONCOLOGY, published 2022).

T1: mouse uPAR on cells (mouse, UniProt P35456 24-298)
T1 construct: whole, on cells; also called Ms-uPAR; mouse uPAR (CD87)
T1 sequence (looked up): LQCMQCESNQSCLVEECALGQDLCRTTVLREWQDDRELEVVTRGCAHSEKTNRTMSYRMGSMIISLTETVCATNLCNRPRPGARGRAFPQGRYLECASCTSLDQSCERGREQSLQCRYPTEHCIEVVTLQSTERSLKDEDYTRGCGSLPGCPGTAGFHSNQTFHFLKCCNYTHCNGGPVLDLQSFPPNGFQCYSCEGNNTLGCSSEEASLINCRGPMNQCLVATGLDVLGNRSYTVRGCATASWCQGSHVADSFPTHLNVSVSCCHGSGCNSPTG

T2: Recombinant mouse uPAR-Fc (R&D Systems, Cat. No. 531-PA-100) (mouse, UniProt P35456 24-297, limits assumed)
T2 construct: not shown: Fc of the bought fusion (captured with the human antibody capture kit); not described
T2 sequence (looked up): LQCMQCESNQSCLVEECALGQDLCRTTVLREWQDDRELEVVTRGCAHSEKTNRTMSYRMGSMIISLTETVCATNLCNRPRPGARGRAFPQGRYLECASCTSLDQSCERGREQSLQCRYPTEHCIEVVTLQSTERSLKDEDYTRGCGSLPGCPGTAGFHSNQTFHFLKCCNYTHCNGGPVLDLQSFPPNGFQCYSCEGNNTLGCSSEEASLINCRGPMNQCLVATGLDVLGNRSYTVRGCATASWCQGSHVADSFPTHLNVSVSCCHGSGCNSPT

T3: IL-2/IL-15 receptor on HH cells (human)
T3 chain 1: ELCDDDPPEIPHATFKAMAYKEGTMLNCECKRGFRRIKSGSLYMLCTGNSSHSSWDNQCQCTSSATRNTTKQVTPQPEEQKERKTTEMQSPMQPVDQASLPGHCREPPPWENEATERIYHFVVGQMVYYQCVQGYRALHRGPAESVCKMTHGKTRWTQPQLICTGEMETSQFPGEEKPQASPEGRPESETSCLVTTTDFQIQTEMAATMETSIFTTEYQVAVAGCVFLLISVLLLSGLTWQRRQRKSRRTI
T3 chain 2: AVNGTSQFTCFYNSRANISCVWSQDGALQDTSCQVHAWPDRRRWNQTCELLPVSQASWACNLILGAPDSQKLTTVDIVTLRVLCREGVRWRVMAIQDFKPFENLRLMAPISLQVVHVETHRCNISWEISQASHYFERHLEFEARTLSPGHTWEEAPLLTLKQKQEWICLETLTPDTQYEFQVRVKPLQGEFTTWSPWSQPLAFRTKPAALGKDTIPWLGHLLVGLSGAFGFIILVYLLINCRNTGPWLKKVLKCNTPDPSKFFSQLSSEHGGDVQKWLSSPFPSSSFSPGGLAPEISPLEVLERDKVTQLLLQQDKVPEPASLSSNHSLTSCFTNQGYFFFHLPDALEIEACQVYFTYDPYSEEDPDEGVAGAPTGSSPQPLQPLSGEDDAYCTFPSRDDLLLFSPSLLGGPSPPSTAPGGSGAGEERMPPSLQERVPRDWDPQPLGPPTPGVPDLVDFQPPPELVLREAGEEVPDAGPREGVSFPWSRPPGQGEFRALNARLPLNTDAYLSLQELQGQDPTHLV
T3 chain 3: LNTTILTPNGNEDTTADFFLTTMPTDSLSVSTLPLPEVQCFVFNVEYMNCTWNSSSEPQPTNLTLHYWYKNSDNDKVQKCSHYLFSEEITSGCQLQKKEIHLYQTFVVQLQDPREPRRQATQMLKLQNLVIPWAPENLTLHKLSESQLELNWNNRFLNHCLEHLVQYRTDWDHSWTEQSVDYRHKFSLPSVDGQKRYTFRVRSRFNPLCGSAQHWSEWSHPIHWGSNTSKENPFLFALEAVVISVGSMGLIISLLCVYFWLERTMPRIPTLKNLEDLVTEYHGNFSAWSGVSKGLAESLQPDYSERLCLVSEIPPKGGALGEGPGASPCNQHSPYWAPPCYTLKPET

B1: Human cpIL-2:IL-2Ra:Human uPA-ATF (N22Y, W30R)-His6 (other)
chain: SKNFHLRPRDLISNINVIVLELKGSETTFMCEYADETATIVEFLNRWITFSQSIISTLTGGSSSTKKTQLQLEHLLLDLQMILNGINNYKNPKLTRMLTFKFYMPKKATELKHLQCLEEELKPLEEVLNLAQGSGGGSELCDDDPPEIPHATFKAMAYKEGTMLNCECKRGFRRIKSGSLYMLCTGNSSHSSWDNQCQCTSSATRNTTKQVTPQPEEQKERKTTEMQSPMQPVDQASLPGHCREPPPWENEATERIYHFVVGQMVYYQCVQGYRALHRGPAESVCKMTHGKTRWTQPQLICTGGGSGGSNELHQVPSNCDCLNGGTCVSYKYFSNIHRCNCPKKFGGQHCEIDKSKTCYEGNGHFYRGKASTDTMGRPCLPWNSATVLQQTYHAHRSDALQLGLGKHNYCRNPDNRRRPWCYVQVGLKPLVQECMVHDCAHHHHHH
notes: also called 110
B2: Linked human 4-1BBL Trimer: Human uPA-ATF (other)
chain: SNELHQVPSNCDCLNGGTCVSNKYFSNIHWCNCPKKFGGQHCEIDKSKTCYEGNGHFYRGKASTDTMGRPCLPWNSATVLQQTYHAHRSDALQLGLGKHNYCRNPDNRRRPWCYVQVGLKPLVQECMVHDCAGGSGGREGPELSPDDPAGLLDLRQGMFAQLVAQNVLLIDGPLSWYSDPGLAGVSLTGGLSYKEDTKELVVAKAGVYYVFFQLELRRVVAGEGSGSVSLALHLQPLRSAAGAAALALTVDLPPASSEARNSAFGFQGRLLHLSAGQRLGVHLHTEARARHAWQLTQGATVLGLFRVTPEIPAGLPSPRSEGSGREGPELSPDDPAGLLDLRQGMFAQLVAQNVLLIDGPLSWYSDPGLAGVSLTGGLSYKEDTKELVVAKAGVYYVFFQLELRRVVAGEGSGSVSLALHLQPLRSAAGAAALALTVDLPPASSEARNSAFGFQGRLLHLSAGQRLGVHLHTEARARHAWQLTQGATVLGLFRVTPEIPAGLPSPRSEGSGREGPELSPDDPAGLLDLRQGMFAQLVAQNVLLIDGPLSWYSDPGLAGVSLTGGLSYKEDTKELVVAKAGVYYVFFQLELRRVVAGEGSGSVSLALHLQPLRSAAGAAALALTVDLPPASSEARNSAFGFQGRLLHLSAGQRLGVHLHTEARARHAWQLTQGATVLGLFRVTPEIPAGLPSPRSE
B3: Human uPA-ATF:His6 (ligand)
chain: SNELHQVPSNCDCLNGGTCVSNKYFSNIHWCNCPKKFGGQHCEIDKSKTCYEGNGHFYRGKASTDTMGRPCLPWNSATVLQQTYHAHRSDALQLGLGKHNYCRNPDNRRRPWCYVQVGLKPLVQECMVHDCAHHHHHH
notes: also called 103
B4: M8 (antibody, V domains shown)
VH: QIQLVQSGPELKKPGETVKISCKASGNTFTDYGMNWVKQSPGKGLKWMGWINTNTGEPTYADDFKGRFAFSLETSASTAYLQINNLKNEDMATYFCAHYSFDYWGQGTTLTVSS
VL: DIQMTQSPASLSVSVGQTVTITCRTSENIYSNLAWYQQKPGKSPQLLVYAATNLADGVPSRFSGSGSGTQYSLKINSLQSEDFGSYYCQHFWGTPWTFGGGTKLEIK
notes: Mouse hybridoma antibody; also called anti-uPAR antibody M8; parental M8
B5: M5 (antibody, V domains shown)
VH: QVQLKESGPGLVAPSQSLSITCTVSGFSLTNYGVHWVRQPPGKDLEWLVVIWSDGGTTYNSALKSRLSISKDNSKSQVFLKMNSLQTDDTAMYYCARGGRSDLFAYWGQGTLVTVSA
VL: DVLMTQTPLSLPVSLGDQASISCRSSQSIVHSNGNTYLEWYLQKPGQSPKLLIYKVSNRFSGVPDRFSGSGSGTDFTLKISRVEAEDLGVYYCFQGSHVPYTFGGGTKLEIK
notes: Mouse hybridoma antibody; also called anti-uPAR antibody M5; parental M5

Key:
mouse uPAR on cells [1] = target: T1, mouse uPAR on cells; assay: flow cytometry on EMT6 cells (express mouse uPAR), anti-His detection
mouse uPAR on cells [2] = target: T1, mouse uPAR on cells; assay: flow cytometry on CT26 cells (express mouse uPAR), anti-His detection
[3] = target: T2, Recombinant mouse uPAR-Fc (R&D Systems, …); assay: SPR (Biacore), mouse uPAR-Fc captured on anti-human antibody chip
[4] = target: T3, IL-2/IL-15 receptor on HH cells; assay: cell-based or functional assay
[5] = target: human 4-1BB on 4-1BB effector cells (human, UniProt Q07011 24-255); assay: cell-based or functional assay
[6] = target: Recombinant human uPAR his (R&D Systems, 807-UK-100/CF) (human, UniProt Q03405 23-303, biotinylated (sites not given)); assay: SPR (Biacore), biotinylated human uPAR his on streptavidin chip
mouse uPAR on cells [7] = target: T1, mouse uPAR on cells; assay: flow cytometry on MC38 cells (express mouse uPAR), anti-His detection
mouse uPAR on cells [8] = target: T1, mouse uPAR on cells; assay: flow cytometry on 4T1 cells (express mouse uPAR), anti-His detection
[9] = target: Human uPAR DII-DIII domain HisAvi Tag (human, biotinylated (site not stated)); assay: BLI (Octet), biotinylated domain on SA sensor, antibody 200 nM
biotinylated human uPAR [10] = target: T4, biotinylated human uPAR (human, UniProt Q03405 23-303, limits assumed, biotinylated (site not stated)); assay: BLI (Octet) on biotinylated human uPAR; row 'None': no first antibody
[11] = target: T5, histidine-tagged human uPAR (Sino#10925-H08H) (human, UniProt Q03405 23-303); assay: BLI (Octet), uPAR on sensor, antibody in solution (avidity)
T5 construct: also called uPAR-His

biotinylated human uPAR [12] = target: T4, biotinylated human uPAR; assay: BLI (Octet) competition on biotinylated human uPAR; competitor (first antibody): M5
biotinylated human uPAR [13] = target: T4, biotinylated human uPAR; assay: BLI (Octet) competition on biotinylated human uPAR; competitor (first antibody): M1
[14] = target: T6, human uPAR expressed on HEK293 cells (human, UniProt Q03405 23-305); assay: flow cytometry, HEK293 cells expressing human uPAR, 100 nM uPA present
T6 construct: whole, on cells; also called Hu-uPAR

mouse uPAR on cells [15] = target: T1, mouse uPAR on cells; assay: flow cytometry, HEK293 cells expressing mouse uPAR, 100 nM uPA present
[16] = target: T5, histidine-tagged human uPAR …; assay: BLI (Octet), antibody on anti-mouse Fc sensor, uPAR in solution
biotinylated human uPAR [17] = target: T4, biotinylated human uPAR; assay: BLI (Octet) competition on biotinylated human uPAR; competitor (first antibody): ATN-368 (ATN-658)

Sequence of human 4-1BB on 4-1BB effector cells (Q07011 24-255): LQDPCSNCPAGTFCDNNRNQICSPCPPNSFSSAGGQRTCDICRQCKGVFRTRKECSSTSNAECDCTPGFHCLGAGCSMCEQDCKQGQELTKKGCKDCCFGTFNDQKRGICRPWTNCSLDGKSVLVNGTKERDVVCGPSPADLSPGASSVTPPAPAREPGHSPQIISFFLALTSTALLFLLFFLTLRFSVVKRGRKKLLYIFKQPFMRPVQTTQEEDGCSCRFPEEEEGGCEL

Binder	EC50 (mouse uPAR on cells [2]) [pM]	binding result [9]	response in competition assay (biotinylated human uPAR [10])	Kd [11] [pM]	koff [11] [s⁻¹]	kon [11] [M⁻¹ s⁻¹]	response in competition assay (biotinylated human uPAR [12])	response in competition assay (biotinylated human uPAR [13])	EC50 [14] [pM]	EC50 (mouse uPAR on cells [15]) [pM]	Kd [16] [pM]	koff [16] [s⁻¹]	kon [16] [M⁻¹ s⁻¹]	response in competition assay (biotinylated human uPAR [17])	also measured
B1	1400														EC50 (mouse uPAR on cells [1]): 540 pM; Kd [3]: 120 pM; koff [3]: 0.00023 s⁻¹; kon [3]: 1.9e+06 M⁻¹ s⁻¹; pSTAT5 EC50, HH cells [4]: 1.6 nM
B2															EC50, luciferase 4-1BB Bioassay [5]: 100 pM; Emax (luciferase units), 4-1BB Bioassay [5]: 330000 luciferase units
B3	1100														Kd [6]: 240 pM; koff [6]: 0.00035 s⁻¹; kon [6]: 1.5e+06 M⁻¹ s⁻¹; EC50 (mouse uPAR on cells [7]): 420 pM; EC50 (mouse uPAR on cells [8]): 220 pM
B4		binds	0.284	< 1	< 1e-07	311000	0.321	0.302	540	31400	1080	0.00063	584000	0.31	
B5		binds	0.181	< 1	< 1e-07	28300	-0.0173	0.161	2530	93800	33100	0.000962	29100	0.179	
